We go through one protein from patent publication US7204989 (YANG SHENG TANG, dated 2007).

This data set deals with the molecule itself. Briefly: SDS-PAGE of thrombin-released pE2; self-association into a homodimer.

Experimental: In addition, samples of the GE2 and pE2 peptides were heated at 100° C. for 3 minutes for subsequent analysis (Lanes 2 and 4) by SDS PAGE (A) and Western blotting (B and C). The molecular weight of these products were compared with markers (Lane 6)
The purified preparations of GE2 and pE2 were characterized by SDS PAGE and Western blotting techniques (FIG. 7). […] In addition, samples of the GE2 and pE2 peptides were heated at 100° C. for 3 minutes for subsequent analysis (Lanes 2 and 4) by SDS PAGE (A) and Western blotting (B and C).

B1: pE2 peptide, monomeric form (23 kD) (other)
chain: QLFYSRPVVSANGEPTVKLYTSVENAQQDKGIAIPHDIDLGESRVVIQDYDNQHEQDRPTPSPAPSRPFSVLRANDVLWLSLTAAEYDQSTYGSSTGPVYVSDSVTLVNVATGAQAVARSLDWTKVTLDGRPLSTIQQYSKTFFVLPLRGKLSFWEAGTTKAGYPYNYNTTASDQLLVENAAGHRVAISTYTTSLGAGPVSISAVAVLAPPPR
notes: Monomer obtained by dissociating the dimer; Also used for the self-association rows; also called pE2 monomer; heated pE2
Turning to B1, the binding result is “binds”.
